In the experiment the target is purified mTOR protein (Origene) (human, UniProt P42345 1-2549). Description: co-IP.

B1: purified ETV7 protein (Origene) (natural protein)
chain: MQEGELAISPISPVAAMPPLGTHVQARCEAQINLLGEGGICKLPGRLRIQPALWSREDVLHWLRWAEQEYSLPCTAEHGFEMNGRALCILTKDDFRHRAPSSGDVLYELLQYIKTQRRALVCGPFFGGIFRLKTPTQHSPVPPEEVTGPSQMDTRRGHLLQPPDPGLTSNFGHLDDPGLARWTPGKEESLNLCHCAELGCRTQGVCSFPAMPQAPIDGRIADCRLLWDYVYQLLLDTRYEPYIKWEDKDAKIFRVVDPNGLARLWGNHKNRVNMTYEKMSRALRHYYKLNIIKKEPGQKLLFRFLKTPGKMVQDKHSHLEPLESQEQDRIEFKDKRPEISP
On to B1, for which the binding result was “binds”.

The values above are taken from publication PMC6156121 (Science Advances, 2018).
